The results in this text go back to patent US20260092093A1 (TJ BIOPHARMA SHANGHAI, published 2026).

Assay [1] deals with T1, hIL-18Rα ECD-Fc fusion protein (human, UniProt Q13478 22-329).
T1 construct: extracellular domain; captured on Protein A sensor
T1 sequence (looked up): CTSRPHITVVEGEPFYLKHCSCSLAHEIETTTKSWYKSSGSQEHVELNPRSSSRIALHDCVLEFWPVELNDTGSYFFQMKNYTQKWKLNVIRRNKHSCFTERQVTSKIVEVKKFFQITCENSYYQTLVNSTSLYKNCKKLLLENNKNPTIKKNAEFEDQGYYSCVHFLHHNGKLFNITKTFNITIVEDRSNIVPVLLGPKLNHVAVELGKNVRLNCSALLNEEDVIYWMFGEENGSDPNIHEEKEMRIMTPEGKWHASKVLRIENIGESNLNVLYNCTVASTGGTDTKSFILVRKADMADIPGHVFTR
Put plainly: BLI (Octet RED96), hIL-18Rα ECD-Fc on Protein A sensor. As for the experimental part: The affinities of IL-18 variant polypeptides for hIL-18Rα were assessed by Biolayer Interferometry (BLI) on Octet RED96 using Protein A sensor coated with hIL-18Rα ECD-Fc fusion protein, and WT hIL-18 was used as a control.
A general note: BLI is a label-free optical method that tracks binding on a fibre tip over time.

For assay [2], the target named is T2, recombinant hIL-18Rα extracellular domain (human, UniProt Q13478 22-329, biotin label (selection) or fluorescent probe (single-clone FACS), sites not given).
T2 construct: extracellular domain; also called hIL-18Rα ECD; hIL-18Rα-ECD
T2 sequence (looked up): T1 sequence (looked up)
Put plainly: single-clone FACS, yeast display, 10 nM labelled hIL-18Rα ECD. As for the experimental part: Following the screens described in Example 2, single clone FACS analysis was performed to verify the binding of selected yeast cell surface-expressed IL-18 variant polypeptides from Round 4 and Round 5 to 10 nM hIL-18Rα-ECD. Briefly, each yeast clone at the same density was incubated with 10 nM IL-18Rα-ECD labeled by fluorescent probe, respectively, followed by washing step. Then the ratio of fluorescent positive IL-18Rα ECD binding yeasts in the population of each clone were analyzed.

Where a chain is given by its changes, count along the chain named.

B1: IL-18 variant polypeptide LM1 (ligand)
chain: YFPKLKSKLSVIRNLNDQVLFIDQGNRPLFEDMTDSDCRDNAPRTIFIISMYKGSGARGMAVTISVKCEKISTLSCENKIISFKEMNPPDNIKDTKSDIIFFQRSVPGHDNKMQFESSSYEGYFLACEKERDLFKLILKKEDELGDRSIMFTVQNED
notes: soluble, E. coli-made
As for B1, in assay [1], binding was characterised by a dissociation constant (Kd) of 86.2 nM; the “Response (nm)” value stood at 0.0618 nm; the koff (as a rule, a measure of how fast the partners let go of each other) worked out at 0.047 s⁻¹; the kon – broadly, the second-order rate constant of association – worked out at 545000 M⁻¹ s⁻¹.

B2: IL-18 variant polypeptide MM5 (ligand)
chain: B1 chain with P3G, K6G, G54L, G56T, A57E, N91G, R104S
notes: soluble, E. coli-made
With B2, in assay [1], the Kd (in general, the equilibrium constant for the complex coming apart) worked out at 104 nM; the “Response (nm)” value is 0.0326 nm; the koff amounted to 0.077 s⁻¹; the kon worked out at 743000 M⁻¹ s⁻¹.

B3: SEQ ID NO 5 (ligand)
chain: B1 chain with K6R, G54H, G56T, A57V, N91V
Turning to B3, the “% of fluorescence positive cells” value in assay [2] was found to be 95.6%.

B4: IL-18 variant polypeptide MM4 (ligand)
chain: B1 chain with K6R, G54L, G56T, A57I, N91G
notes: soluble, E. coli-made
Turning to B4, in assay [1], the affinity, expressed as Kd, was 9.82 nM; the “Response (nm)” value is 0.0238 nm; the koff came to 0.0375 s⁻¹; the kon was found to be 3.82e+06 M⁻¹ s⁻¹.

B5: IL-18 variant polypeptide WM8 (ligand)
chain: B1 chain with K6R, G54D, G56Q, A57P, N91S
notes: soluble, E. coli-made
Take B5: the “Response (nm)” value in assay [1] is below 0.02 nm.

B6: IL-18 variant polypeptide WM2 (ligand)
chain: B1 chain with K6R, G54D, G56Q, A57P, K96E
notes: soluble, E. coli-made
With B6, in assay [1], the “Response (nm)” value is below 0.02 nm.

B7: IL-18 variant polypeptide LM4 (ligand)
chain: B1 chain with G54H, G56Y, A57S
notes: soluble, E. coli-made
With B7, in assay [1], binding was put at a Kd of 4.17 nM, the “Response (nm)” value is 0.0262 nm, the koff was determined as 0.0169 s⁻¹ and the association rate constant (kon) is 4.06e+06 M⁻¹ s⁻¹.

B8: IL-18 variant polypeptide M6 (ligand)
chain: B1 chain with K6R, G54W, G56T, A57P, N91V, R104T
As for B8, the “% of fluorescence positive cells” value in assay [2] was found to be 79%.

B9: IL-18 variant polypeptide LM2 (ligand)
chain: B1 chain with K6R, G54L, A57S, N91V
notes: soluble, E. coli-made
For the molecule B9, in assay [1], the Kd was 37.9 nM, the “Response (nm)” value amounted to 0.0338 nm, the koff came to 0.052 s⁻¹ and the kon was 1.37e+06 M⁻¹ s⁻¹.

B10: IL-18 variant polypeptide M36 (ligand)
chain: B1 chain with K6S, G54A, G56D, A57Q, N91G
Turning to B10, the “% of fluorescence positive cells” value in assay [2] is 14.8%.

B11: IL-18 variant polypeptide LM5 (ligand)
chain: B1 chain with P3G, K6R, G54W, G56S, A57Q
notes: soluble, E. coli-made
Regarding B11, in assay [1], the affinity, expressed as Kd, was 19.6 nM; the “Response (nm)” value was determined as 0.038 nm; the off-rate (koff) was determined as 0.0411 s⁻¹; the kon amounted to 2.1e+06 M⁻¹ s⁻¹.

B12: IL-18 variant polypeptide M8 (ligand)
chain: B1 chain with K6R, G54W, G56P, N91A, R104L
As to B12, in assay [2], the “% of fluorescence positive cells” value was determined as 73.4%.

B13: IL-18 variant polypeptide WM6 (ligand)
chain: B1 chain with P3D, G54D, G56Q, A57P, N91S
notes: soluble, E. coli-made
Consider B13, for which, in assay [1], the Kd amounted to 10.1 nM, the “Response (nm)” value was 0.304 nm, the koff was found to be 0.00199 s⁻¹ and the on-rate constant (kon) came to 196000 M⁻¹ s⁻¹.

B14: IL-18 variant polypeptide WM10 (ligand)
chain: B1 chain with G54D, G56Q, A57P, N91S
notes: soluble, E. coli-made
B14: in assay [1], the Kd came to 12.9 nM, the “Response (nm)” value is below 0.02 nm, the koff came out at 0.007 s⁻¹ and the kon was found to be 543000 M⁻¹ s⁻¹.

B15: IL-18 variant polypeptide MM1 (ligand)
chain: B1 chain with G54L, G56T, A57Q, N91V
As for B15, in assay [2], the “% of fluorescence positive cells” value came to 91.6%.

B16: IL-18 variant polypeptide LM3 (ligand)
chain: B1 chain with K6R, V11I, N91G
notes: soluble, E. coli-made
As to B16, in assay [1], the Kd is 14.6 nM, the “Response (nm)” value was 0.0422 nm, the koff came to 0.0328 s⁻¹ and the kon was 2.24e+06 M⁻¹ s⁻¹.
